This is an account of results in WO2012119989A2 (dated 2012).

Substitutions are numbered along the chain they refer to.

Assay [1] deals with T1, Cell adhesion molecule-1 (CADM1), human, on the cell surface (human) (UniProt Q9BY67).
T1 sequence (looked up): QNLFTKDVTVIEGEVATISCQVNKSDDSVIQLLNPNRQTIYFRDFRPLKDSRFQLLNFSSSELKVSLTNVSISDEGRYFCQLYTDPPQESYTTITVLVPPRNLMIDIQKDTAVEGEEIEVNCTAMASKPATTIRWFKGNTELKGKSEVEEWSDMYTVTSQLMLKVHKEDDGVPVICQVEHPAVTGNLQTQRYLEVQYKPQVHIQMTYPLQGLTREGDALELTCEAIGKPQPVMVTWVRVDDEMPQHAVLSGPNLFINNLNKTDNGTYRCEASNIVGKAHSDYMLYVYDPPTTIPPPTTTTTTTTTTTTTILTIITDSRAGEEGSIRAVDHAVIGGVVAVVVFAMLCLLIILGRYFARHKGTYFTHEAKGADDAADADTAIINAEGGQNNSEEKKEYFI
The assay is described as follows: cell-based or functional assay.

The target in assay [2] is T1, Cell adhesion molecule-1 (CADM1), human, on the cell surface (human). The assay is described as follows: flow cytometry, DU145 prostate cancer cells, antibody 10ug/ml.
The target is the same in assay [3]. Kind of assay: flow cytometry, LnCaP cells. (In general: Flow cytometry measures light scatter and fluorescence of single cells or particles in a stream.)
The target is the same in assay [4]. Kind of assay: flow cytometry, DU145 cells.
Assay [5] has as its target T2, CADM1 extracellular domain expressed by the CHO-Flpln CADM1 cell line (human) (UniProt Q9BY67).
T2 sequence: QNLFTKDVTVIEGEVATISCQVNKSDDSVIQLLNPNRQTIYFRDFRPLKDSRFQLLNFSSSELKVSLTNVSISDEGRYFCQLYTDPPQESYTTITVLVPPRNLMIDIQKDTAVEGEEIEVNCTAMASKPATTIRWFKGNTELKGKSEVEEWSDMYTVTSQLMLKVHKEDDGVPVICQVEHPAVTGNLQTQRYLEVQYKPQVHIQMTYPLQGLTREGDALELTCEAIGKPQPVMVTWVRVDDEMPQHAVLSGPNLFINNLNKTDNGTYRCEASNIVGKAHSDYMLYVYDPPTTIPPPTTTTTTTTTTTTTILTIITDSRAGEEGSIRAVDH
The assay is described as follows: flow cytometry, CHO-Flpln CADM1 cells.

Assay [6] has as its target T3, Cell adhesion molecule-1 (CADM1), human, on the cell surface (human, UniProt Q9BY67 45-442).
T3 construct: whole, on cells; also called TSLC1; IGSF4
T3 sequence (looked up): T1 sequence (looked up)
Kind of assay: flow cytometry titration, A375 melanoma cells, mouse IgG2a isotype.

The target of assay [7] is T4, CADM4, human, on transfected CHO cells (human, UniProt Q8NFZ8 21-388).
T4 construct: whole, on cells; also called CAD 4
T4 sequence (looked up): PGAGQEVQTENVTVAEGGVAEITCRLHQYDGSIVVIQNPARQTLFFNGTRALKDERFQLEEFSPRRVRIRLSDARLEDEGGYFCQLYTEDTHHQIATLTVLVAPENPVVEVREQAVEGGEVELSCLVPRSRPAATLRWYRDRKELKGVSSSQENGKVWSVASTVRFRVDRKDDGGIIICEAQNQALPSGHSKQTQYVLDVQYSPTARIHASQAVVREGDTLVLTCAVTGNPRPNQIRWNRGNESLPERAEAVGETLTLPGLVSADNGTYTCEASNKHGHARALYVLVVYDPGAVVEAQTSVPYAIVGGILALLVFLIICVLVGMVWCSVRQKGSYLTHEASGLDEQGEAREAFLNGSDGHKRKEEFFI
Kind of assay: flow cytometry, CHO cells transiently transfected with CADM4.

Assay [8] addresses T2, CADM1 extracellular domain expressed by the CHO-Flpln CADM1 cell line (human). Kind of assay: flow cytometry, CHO-Flpln CADM1 cells (second table of Example 15).
Assay [9] has as its target T3, Cell adhesion molecule-1 (CADM1), …. Kind of assay: flow cytometry titration, A375 melanoma cells, human IgG1 isotype.
Assay [10] has as its target T5, CADM2, human, on transfected CHO cells (human, UniProt Q8N3J6 25-435).
T5 construct: whole, on cells
T5 sequence (looked up): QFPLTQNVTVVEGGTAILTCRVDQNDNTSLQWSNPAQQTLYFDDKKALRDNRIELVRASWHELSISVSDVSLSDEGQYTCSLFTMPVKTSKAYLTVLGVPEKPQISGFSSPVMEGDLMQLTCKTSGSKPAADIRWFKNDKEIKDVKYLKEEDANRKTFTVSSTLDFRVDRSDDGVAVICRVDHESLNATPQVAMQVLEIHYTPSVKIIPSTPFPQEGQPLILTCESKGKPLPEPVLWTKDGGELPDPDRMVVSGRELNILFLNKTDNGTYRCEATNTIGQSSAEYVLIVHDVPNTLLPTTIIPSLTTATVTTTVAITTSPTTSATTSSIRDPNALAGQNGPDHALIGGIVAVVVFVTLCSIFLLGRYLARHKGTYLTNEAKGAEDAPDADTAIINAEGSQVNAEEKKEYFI
The assay is described as follows: flow cytometry, CHO cells transiently transfected with CADM2.

For assay [11], the target named is T6, CADM3, human, on transfected CHO cells (human, UniProt Q8N126 25-398).
T6 construct: whole, on cells; also called CADSV13 (OCR)
T6 sequence (looked up): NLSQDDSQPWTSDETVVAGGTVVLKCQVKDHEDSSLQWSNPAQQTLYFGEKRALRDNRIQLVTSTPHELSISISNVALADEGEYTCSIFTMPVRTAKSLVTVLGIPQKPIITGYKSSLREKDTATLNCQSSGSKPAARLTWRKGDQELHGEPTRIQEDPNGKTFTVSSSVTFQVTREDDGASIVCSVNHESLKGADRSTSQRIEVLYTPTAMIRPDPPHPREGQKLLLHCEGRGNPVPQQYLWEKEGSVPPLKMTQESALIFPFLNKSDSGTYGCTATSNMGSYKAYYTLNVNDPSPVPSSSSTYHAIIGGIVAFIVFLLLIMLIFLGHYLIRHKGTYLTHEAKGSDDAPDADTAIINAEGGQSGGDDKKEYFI
The assay is described as follows: flow cytometry, CHO cells transiently transfected with CADM3.

Assay [12] has as its target T3, Cell adhesion molecule-1 (CADM1), …. The assay is described as follows: flow cytometry titration, SKOV3 ovary cancer cells.
The target in assay [13] is T1, Cell adhesion molecule-1 (CADM1), human, on the cell surface (human). The assay is described as follows: flow cytometry, LnCaP prostate cancer cells, antibody 10ug/ml.
The target is the same in assay [14]. The assay is described as follows: flow cytometry, LnCaP cells (second table of Example 15).
For assay [15] the target is unchanged. The assay is described as follows: flow cytometry, Lovo colon cancer cells, antibody 10ug/ml.
The target is the same in assay [16]. Kind of assay: flow cytometry, Caco-2 colon cancer cells, antibody 10ug/ml.
Assay [17] has the same target. Kind of assay: flow cytometry, SW480 colon cancer cells, antibody 10ug/ml.
The target is the same in assay [18]. The assay is described as follows: flow cytometry, MDA-MB-435S melanoma cells, antibody 10ug/ml.
For assay [19] the target is unchanged. Kind of assay: flow cytometry, SKMEL28 melanoma cells, antibody 10ug/ml.

B1: Antibody-1 (antibody, V domains shown)
VH: EVQLLESGGGLVQPGGSLRLSCAASGFTFSFYPMQWVRQAPGKGLEWVSSIGSSGGYTKYADSVKGRFTISRDNSKNTLYLQMNSLRAEDTAVYYCTRDRWYFDLWGRGTL
VL: QSELTQDPAVSVALGHTVKITCQGDTFRTYYASWYQQKPGQAPLLVVYGENKRPSGIPDRFSGSTSGNTASLTITGAQAEDEADYYCHSRDNSGHLHVFGGGTKVTVL
As for B1, in assay [1], the % cell viability at 100 nM, Hum-ZAP assay, DU145 prostate cancer cells was 60.6%. Further, the % of fluorescence cells in assay [2] is 99%. Also, the percent of cells bound in assay [3] was determined as 99.6%; in assay [4] it was 99%; in [5], 99.8%.

B2: anti-CADM1 AB-10, mouse IgG2a isotype (antibody, V domains shown)
VH: B1 VH with F31M, P33T, Q35S, G52W, Y57K, K59S, T97A, R98K, D99E, R100S
VL: QYELTQDPAVSVALGQTVRITCQGHSLRSYYATWYQQKPGQAPVLVMYGENNRPSGIPDRFSGSSSGNTASLTITGAQAEDEADYYCNSRDNSGNHLVFGGGTNLTVL
notes: also called AB-10 mouse lgG2a
Broadly, the EC50 is the concentration needed to bring the measured effect to its halfway point. Read a high EC50 as weaker potency. With B2, a half-maximal effect in [6] (EC50) was put at 0.76 nM.

B3: Antibody-10 (antibody, V domains shown)
VH: B1 VH with F31M, P33T, Q35S, G52W, Y57K, K59S, T97A, R98K, D99E, R100S
VL: B2 VL
notes: also called AB10; AB 1 0
Turning to B3, the binding result in assay [7], in assay [10] and in [11] was “no binding (tested: 10ug/ml (protocol of Example 19))” in each case. Further, the percent of cells bound was found to be 98.7% in [8] and 99.8% in assay [5]. For the same molecule, the EC50 in [9] was 1.26 nM.

B4: Antibody-3 (antibody, V domains shown)
VH: B1 VH with F31R, Q35Y, G52S, Y57L, K59H, T97A, D99G, R100D
VL: QYELTQDPAVSVALGQTVRITCQGDSLRTYYASWYQQRPGQAPVLVIYGDNDRPSGIPDRFSGSTSRNTASLTITGAQAEDEAHYYCNSRDSSGNHIFATGTKVTVL
notes: also called AB3; AB 3
In the case of B4, the binding result in [7], in assay [10] and in assay [11] was “no binding (tested: 10ug/ml (protocol of Example 19))” in each case. This molecule showed an EC50 in assay [12] of 1 nM. This molecule returned a percent of cells bound in assay [5] of 99.7%.

B5: Antibody-2 (antibody, V domains shown)
VH: EVQLLESGGGLVQPGGSLRLSCAASGFTFSKYEMVWVRQAPGKGLEWVSYIVPSGGATLYADSVKGRFTISRDNSKNTLYLQMNSLRAEDTAVYYCARVKAGVFDYWGQGTL
VL: QYELTQPPSVSVSPGQTARITCSGDRLGETYVSWYQQKPGQSPVLVIFEDNKRPSGIPERFSGSNSGNTATLTVSGTRAMDEADYYCQAWVGSTPFVFGTGTKVTVL
B5: the % of fluorescence cells in assay [13] stood at 98.6%; in assay [15], 99.2%; in assay [16], 99.6%; in assay [17], 100%; in assay [2], 99.5%; in assay [18] it was 100%. In addition, in [19], the % of fluorescence cells stood at 100%. The percent of cells bound in assay [8] was found to be 98.3%; in assay [14] it was 98.6%; in assay [3], 99.5%; in assay [4] it was 99.5%; in assay [5] it was 99.9%. Moreover, in assay [1], the % cell viability at 100 nM, Hum-ZAP assay, A375 melanoma cells was 26.2%. In [1], the % cell viability at 100 nM, Hum-ZAP assay, Caco-2 colon cancer cells was 55.9%. In assay [1], this molecule had a % cell viability at 100 nM, Hum-ZAP assay, Lovo colon cancer cells of 34.3%. In assay [1], the % cell viability at 100 nM, Hum-ZAP assay, MDA-MB-435S melanoma cells amounted to 27.3%. For the same molecule, the % cell viability at 100 nM, Hum-ZAP assay, SKMEL28 melanoma cells in [1] was 36.7%. This molecule also registered a % cell viability at 100 nM, Hum-ZAP assay, SW480 colon cancer cells in [1] of 20.6%. In addition, the % of viability, Hum-ZAP internalization assay, positive CADM1 cell line, antibody 10-6 M in [1] worked out at 85.1%. For the same molecule, in assay [1], the % of viability, Hum-ZAP internalization assay, positive CADM1 cell line, antibody 10-7 M stood at 29.3%. The molecule also gave a % of viability, Hum-ZAP internalization assay, positive CADM1 cell line, antibody 10-8 M in assay [1] of 14%.

B6: AB2 NF (antibody, V domains shown)
VH: B5 VH
VL: B5 VL
For B6, the results for the percent of cells bound in [8] and in [14] were 98.5% and 96.8%, respectively.
